From US20220403048A1, “BINDING MOLECULES TO ARGINASE II [ARG2]” (Cancer Research Technology Limited, priority 2019, published 2022)
Where a chain is given by its changes, count along the chain named.

T1: human ARG2 (Homo sapiens, UniProt P78540, E275H/R327K)
T1 construct: His10 (after a GGG linker) (C); made in house; host or cells: E. coli BL21 (DE3)
T1 sequence (P78540 23-354 E275H/R327K): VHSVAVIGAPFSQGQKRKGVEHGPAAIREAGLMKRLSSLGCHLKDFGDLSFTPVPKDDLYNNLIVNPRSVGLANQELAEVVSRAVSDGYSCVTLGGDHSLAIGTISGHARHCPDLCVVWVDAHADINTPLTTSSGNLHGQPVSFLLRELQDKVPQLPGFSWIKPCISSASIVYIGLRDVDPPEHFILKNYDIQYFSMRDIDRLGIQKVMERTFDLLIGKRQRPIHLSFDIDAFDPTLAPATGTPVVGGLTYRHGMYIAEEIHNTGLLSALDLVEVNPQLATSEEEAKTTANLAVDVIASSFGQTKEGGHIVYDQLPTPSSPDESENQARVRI

B1: C0021061: anti-ARG2 antibody, first generation lead, VH SEQ ID NO: 62, VL SEQ ID NO: 67 (antibody, listed as Homo sapiens, V domains shown)
VH: EVQLLESGGGLVQPGGSLRLSCAASGFTFSSYAMSWVRQAPGKGLEWVSAKPTDAGSTYYADSVKGRFTISRDNSKNTLYLQMNSLRAEDTAVYYCARLRADLGLYMDLWGRGTLVTVSS
VL: QSVLTQPPSVSAAPGQKVTISCSGSSSNIGNHYVSWYQQLPGTAPKLLIYNTVYPKSGIPDRFSGSKSGTSATLGITGLQTGDEADYYCGTWDSSLSALVFGGGTKLTVL
modifications: C0021061
B2: C0021065: anti-ARG2 antibody, VH SEQ ID NO: 72, VL SEQ ID NO: 77 (antibody, listed as Homo sapiens, V domains shown)
VH: EVQLLESGGGLVQPGGSLRLSCAASGFTFSSYAMSWVRQAPGKGPEWVSAISGFSPYYADSVKGRFTISRDNSRNTLYLQMNSLRAEDTAVYYCARLRADLGLYMDLWGRGTLVTVSS
VL: B1 VL with N51D, V53D, Y54H, P55M, K56A
modifications: C0021065
B3: C0021092: anti-ARG2 antibody, VH SEQ ID NO: 92, VL SEQ ID NO: 97 (antibody, listed as Homo sapiens, V domains shown)
VH: B1 VH with S31R, K51H, P52T, T53H, D54S, A55P
VL: B1 VL with T52S, Y54A, P55R, K56P
modifications: C0021092
B4: C0021022: anti-ARG2 antibody, VH SEQ ID NO: 42, VL SEQ ID NO: 47 (antibody, listed as Homo sapiens, V domains shown)
VH: B2 VH with R74K
VL: B1 VL with N51D, T52N, V53S, Y54E, P55R, K56P
modifications: C0021022
B5: C0021133: anti-ARG2 antibody, VH SEQ ID NO: 192, VL SEQ ID NO: 197 (antibody, listed as Homo sapiens, V domains shown)
VH: EVQLLESGGGLVQPGGSLRLSCAASGFTFRYDHHVWVRQAPGKGLEWVSAISGSGGSTYYADSVKGRFTISRDNSKNTLYLQMNSLRAEDTAVYYCARLRADLGLYMDLWGRGTLVTVSS
VL: B1 VL with I20V, N51D, V53T, Y54V, P55L, K56S, S94E, S95L, L96T, A98N
modifications: C0021133
B6: C0021139: anti-ARG2 antibody, VH SEQ ID NO: 212, VL SEQ ID NO: 217 (antibody, listed as Homo sapiens, V domains shown)
VH: B5 VH with R30Q, H33Y, H34Q
VL: B1 VL with N51D, T52N, V53S, Y54E, P55R, K56T, S94E, S95L, L96T, A98N
modifications: C0021139
B7: C0021158 IgG: anti-ARG2 antibody, VH SEQ ID NO: 282, VL SEQ ID NO: 287; IgG and Fab versions carry these sequences (antibody, listed as Homo sapiens, V domains shown)
VH: B5 VH with D32E, H33V, H34A, V35A, S54P, G55I, G56P, S57K, T58G
VL: QSVLTQPPSVSAAPGQKVTISCSGSSSNIGNHYVSWYQQLPGTAPKLLIYDNSERTAGVPDRFSGSKSGTSATLGITGLQTGDEADYYCGTWDELTSNLVFGGGTKLTVL
modifications: C0021158 IgG
B8: C0021180: anti-ARG2 antibody, VH SEQ ID NO: 332, VL SEQ ID NO: 337 (antibody, listed as Homo sapiens, V domains shown)
VH: B5 VH with D32E, H33V, H34A, V35A, S54P, G55I, G56P, S57K, T58G
VL: QSVLTQPPTVSAAPGRKVTISCSGSSSNIGDHHVSWYQQLPGAAPKLLIYDTDHMASGIPDRFSGSRSGTSATLGITGLQTGDEADYYCGTWDSSLSALVFGGGTKLTVL
modifications: C0021180
B9: C0021181: anti-ARG2 antibody, VH SEQ ID NO: 342, VL SEQ ID NO: 347 (antibody, listed as Homo sapiens, V domains shown)
VH: B5 VH with Q13R, G26E, H33Y, G66S
VL: B7 VL with T19A, I20V, N31S, A57S, V59I, K106R
modifications: C0021181
B10: C0021177: anti-ARG2 antibody, VH SEQ ID NO: 322, VL SEQ ID NO: 327 (antibody, listed as Homo sapiens, V domains shown)
VH: B5 VH with D32E, H33V, H34A, V35A, S54P, G55A, G56P, S57K, T58G
VL: B7 VL with V3E, S9T, V10A, N52T, S53T, E54V, R55L, T56S, A57S, V59I
modifications: C0021177

These molecules were tested on cynomolgus ARG2 (assay: Bio-Layer Interferometry (OctetRED) binding kinetics, cynomolgus ARG2). Conditions: Fab as analyte; cyno ARG2 ligand; affinity-matured antibodies.
Sequence of cynomolgus ARG2 (as listed by the source): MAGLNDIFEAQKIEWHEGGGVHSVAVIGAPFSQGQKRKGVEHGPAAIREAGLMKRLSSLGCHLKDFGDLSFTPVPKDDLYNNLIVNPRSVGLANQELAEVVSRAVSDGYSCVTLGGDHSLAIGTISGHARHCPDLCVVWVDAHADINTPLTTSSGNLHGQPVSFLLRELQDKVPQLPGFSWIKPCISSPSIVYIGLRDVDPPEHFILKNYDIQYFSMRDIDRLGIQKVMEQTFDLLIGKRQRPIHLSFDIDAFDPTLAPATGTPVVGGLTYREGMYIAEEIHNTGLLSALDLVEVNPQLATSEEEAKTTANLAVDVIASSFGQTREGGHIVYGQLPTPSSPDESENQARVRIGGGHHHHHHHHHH
Text: (§1) The OctetRED (Pall ForteBio) instrument was used to assess the kinetic parameters of the interactions between C0020187 and recombinantly produced human ARG2, cynomolgus ARG2 and human ARG1. The Octet biosensor uses an optical analytical technique that analyses the interference pattern of white light reflected from two surfaces: a layer of immobilised protein on the sensor tip, and an internal reference layer. Any changes in binding at the biosensor tip result in a shift in interference pattern, which can be measured in real time. Molecules associating with or dissociating from ligands at the biosensor tip shift the interference pattern and generate a response on the Octet system which is recorded by the acquisition software.
(§2) Typically, a defined concentration of the analyte species is brought into contact with the coupled ligand and any binding is detected as an increased in signal (association phase). This is followed by a period of buffer rinse, during which dissociation of the analyte species from the surface immobilised ligand can be observed as a decrease in signal (dissociation phase). Repetition of this with a range of analyte concentrations provides data for the analysis of binding kinetics.
(§3) An Octet Kinetics Buffer (PBS containing 0.01% BSA and 0.002% Tween20) is typically used as the diluent buffer for the analyte samples and as the flow buffer during the dissociation phase. The experimental data is recorded over time as shift in interference pattern (nm) over time, which is directly proportional to the optical thickness at the biosensor tip, which in turn is an approximate measure of the mass of analyte bound. The proprietary Octet Data Analysis software package can then be used to process data and fit binding models to the data sets. Returned association (ka, M^−1 s^−1) and dissociation (kd, s^−1) rate constants allow calculation of dissociation (KD, M) affinity constants.
(§4) The affinity of binding between the Fab of C0020187 and human ARG2, cynomolgus ARG2 and human ARG1 was estimated using assays in which the biotinylated ARG antigen was captured on a streptavidin sensor tip. A fresh sensor tip was used for each measurement and no regeneration was used. A series of dilutions of the C0020187 Fab (3.25-240 nM) were individually placed in contact with the ligand surface for a sufficient amount of time to observe sensorgrams that could be fitted to an appropriate binding model with confidence (typically 5 minutes), followed by an appropriate length of dissociation time (typically 10 minutes). Blank reference (0 nM Fab) data were subtracted from each dataset to reduce the impact of any buffer artefacts or non-specific binding effects. An appropriate binding model was then fitted simultaneously to the data from each analyte titration using the Octet Evaluation software.
(§5) Example results for C0020187 are shown in Table 9, showing the association rate constants (ka), dissociation rate constants (kd) and dissociation constants (KD). These parameters were derived from a 1:1 binding fit to the data.
(§6) The affinities of the affinity-matured antibodies to human ARG2 were measured on the OctetRED system as described in section 1.15 using the streptavidin capture method. Typically, an analyte titration range of 1.8 to 120 nM was used.
The affinities of some of these antibodies to cynomolgus ARG2 were determined using the same assay, and the derived kinetic parameters are shown in Table 21.
Molecule B1 has a ka of 310000 M⁻¹ s⁻¹ and a kd of 0.000296 s⁻¹.
B2 showed a ka of 617000 M⁻¹ s⁻¹ and a kd of 0.000782 s⁻¹.
For B3, the ka was 354000 M⁻¹ s⁻¹ and the kd was 0.000726 s⁻¹.
Work on B4 yielded a ka of 706000 M⁻¹ s⁻¹ and a kd of 0.00117 s⁻¹.
B5 gave a ka of 328000 M⁻¹ s⁻¹ and a kd of 0.000549 s⁻¹.
Molecule B6 has a ka of 275000 M⁻¹ s⁻¹ and a kd of 0.000724 s⁻¹.

Same assay, conditions: second-generation Fab; cyno ARG2 ligand; same extended assay
For B7, the ka was 429000 M⁻¹ s⁻¹ and the kd was 4.64e-05 s⁻¹.
Work on B8 yielded a ka of 381000 M⁻¹ s⁻¹ and a kd of 0.000135 s⁻¹.
Molecule B9 has a ka of 257000 M⁻¹ s⁻¹ and a kd of 4.43e-05 s⁻¹.
Work on B10 yielded a ka of 414000 M⁻¹ s⁻¹ and a kd of 3.12e-05 s⁻¹.

These molecules were tested against T1, human ARG2 (assay: Bio-Layer Interferometry (OctetRED) binding kinetics, human ARG2). Conditions: Fab as analyte; streptavidin capture; analyte 1.8 to 120 nM; affinity-matured antibodies.
Text: as §1, §2, §3, §4, §5, §6
The affinities of the second-generation antibodies to human ARG2 were measured on the OctetRED system. A screening assay which stably captures His-tagged ARG2 as the ligand on an anti-His surface was utilised to screen the second-generation candidates as Fabs at an analyte range of 1.8 to 120 nM, with an association time of 5 minutes and a dissociation time of 10 minutes. Sensors were regenerated using 10 mM glycine pH 1.5 after each cycle. Based on this assay, six candidates with estimated affinities in the sub-nanomolar range were identified, and they were further profiled using an extended assay which is more suitable for antibodies of high affinities. […]
For B1, the ka was 271000 M⁻¹ s⁻¹ and the kd was 0.000351 s⁻¹.
B2 showed a ka of 409000 M⁻¹ s⁻¹ and a kd of 0.000665 s⁻¹.
B3 showed a ka of 280000 M⁻¹ s⁻¹ and a kd of 0.000755 s⁻¹.
In the case of B4, the ka is reported as 412000 M⁻¹ s⁻¹ and the kd is reported as 0.00112 s⁻¹.
B5 gave a ka of 219000 M⁻¹ s⁻¹ and a kd of 0.000449 s⁻¹.
With B6 the ka was 198000 M⁻¹ s⁻¹ and the kd was 0.000871 s⁻¹.

Same assay, conditions: second-generation Fab; extended assay: association 10 min, dissociation 40 min, 0.47 to 30 nM, streptavidin surface with bio-ARG2
Molecule B7 has a ka of 262000 M⁻¹ s⁻¹ and a kd of 4.54e-05 s⁻¹.
With B8 the ka was 278000 M⁻¹ s⁻¹ and the kd was 0.000122 s⁻¹.
Molecule B9 has a ka of 145000 M⁻¹ s⁻¹ and a kd of 4.17e-05 s⁻¹.
B10 gave a ka of 202000 M⁻¹ s⁻¹ and a kd of 3.51e-05 s⁻¹.
